One variant from IntAct's records for PubMed 24290140 can be followed below.

B1: Four and a half LIM domains protein 1 (Mus musculus), P97447-2 (parent)
chain: MSEKFDCHYCRDPLQGKKYVQKDGRHCCLKCFDKFCANTCVDCRKPISADAKEVHYKNRYWHDNCFRCAKCLHPLASETFVSKDGKILCNKCATREDSPRCKGCFKAIVAGDQNVEYKGTVWHKDCFTCSNCKQVIGTGSFFPKGEDFYCVTCHETKFAKHCVKCNKGLVKAPVWWPMKDNPGTTTASTAKNAP

The assay covers variants of B1. The conditions noted are these: with suh_mouse Rbpj.
Regarding W175A;W176A, the “effect of a mutation on the interaction” value is recorded as “disrupting interaction strength”.
